Measured values: the RNAGym collection of RNA variant scans (doi:10.7554/elife.80360)

B1: HDV Ribozyme (parent)
chain: GGCCGGCAUGGUCCCAGCCUCCUCGCUGGCGCCGGCUGGGCAACAUUCCGAGGGGACCGUCCCCUCGGUAAUGGCGAAUGGGACCCA

Variants of: B1
Test: self-cleavage, relative activity (ratio to wild type); higher = more cleavage; co-transcriptional

Q: For C26U A56C, which self-cleavage is on record?
A: 1.12

Q: Which self-cleavage does the source give for A42U G52C here?
A: 0.799

Q: With G50U C61U as the variant, how does the self-cleavage read?
A: 0.59

Q: Which self-cleavage does the source give for C24A G68C here?
A: 0.628

Q: With A16U C36G as the variant, how does the self-cleavage read?
A: 0.0519

Q: Which self-cleavage does the source give for U23A G39A here?
A: 0.408

Q: With G10C A77C as the variant, how does the self-cleavage read?
A: 0.208

Q: Which self-cleavage does the source give for G10A A78U here?
A: 0.0382

Q: For U47C G74A, which self-cleavage is on record?
A: 0.233

Q: With G11U C13G as the variant, how does the self-cleavage read?
A: 0.0831

Q: With U37C C58U as the variant, how does the self-cleavage read?
A: 0.997

Q: With C21U G59C as the variant, how does the self-cleavage read?
A: 0.292

Q: With A8C U65G as the variant, how does the self-cleavage read?
A: 0.985

Q: For G38U G82C, which self-cleavage is on record?
A: 0.218

Q: For A51G C57U, which self-cleavage is on record?
A: 0.85

Q: For C3G C32A, which self-cleavage is on record?
A: 0

Q: Which self-cleavage does the source give for C61G G81U here?
A: 0.358

Q: Which self-cleavage does the source give for C49A C86A here?
A: 1.22

Q: With G5U C21A as the variant, how does the self-cleavage read?
A: 0

Q: With G38A A43C as the variant, how does the self-cleavage read?
A: 0.0449

Q: With C49G G80C as the variant, how does the self-cleavage read?
A: 0.178

Q: Which self-cleavage does the source give for G52A U72A here?
A: 0.423

Q: Which self-cleavage does the source give for G53C C62U here?
A: 1.03

Q: Which self-cleavage does the source give for C32G G35A here?
A: 0.154

Q: With A43G A77G as the variant, how does the self-cleavage read?
A: 0.332

Q: Which self-cleavage does the source give for G17U U37A here?
A: 0.185

Q: With C58U A78U as the variant, how does the self-cleavage read?
A: 0.277

Q: Which self-cleavage does the source give for G2C A78G here?
A: 0.0875

Q: For G31A C85A, which self-cleavage is on record?
A: 0.415

Q: For G28C C75A, which self-cleavage is on record?
A: 0.113

Q: For C4U G53A, which self-cleavage is on record?
A: 0.665

Q: For C13U A87U, which self-cleavage is on record?
A: 0.819

Q: For C24U C62U, which self-cleavage is on record?
A: 0.763

Q: With C32U A45C as the variant, how does the self-cleavage read?
A: 0.291

Q: With G34U A42C as the variant, how does the self-cleavage read?
A: 0.0963

Q: Which self-cleavage does the source give for C61U C75G here?
A: 0.151

Q: For U27G G52C, which self-cleavage is on record?
A: 1.02

Q: Which self-cleavage does the source give for A71G C85G here?
A: 1.03

Q: With A16C A71C as the variant, how does the self-cleavage read?
A: 0.492

Q: With C14U G73A as the variant, how does the self-cleavage read?
A: 0.831

Q: With G53A A87G as the variant, how does the self-cleavage read?
A: 0.995

Q: For U20G U79A, which self-cleavage is on record?
A: 0.175

Q: With C7U U27A as the variant, how does the self-cleavage read?
A: 0.519

Q: For C22U A45C, which self-cleavage is on record?
A: 0.113

Q: Which self-cleavage does the source give for G52C G74A here?
A: 0.486

Q: Which self-cleavage does the source give for C26A C36A here?
A: 0.143

Q: For C36A C41A, which self-cleavage is on record?
A: 0.102

Q: With C26A U27A as the variant, how does the self-cleavage read?
A: 0.749

Q: Which self-cleavage does the source give for C44A A83U here?
A: 0.0615

Q: For C48G A83G, which self-cleavage is on record?
A: 0.779

Q: Which self-cleavage does the source give for U20C A71U here?
A: 0.0898

Q: Which self-cleavage does the source give for C13G A70G here?
A: 0.229

Q: With C21U U79C as the variant, how does the self-cleavage read?
A: 0.0573

Q: Which self-cleavage does the source give for A45U G52A here?
A: 0.798

Q: With C19U C21G as the variant, how does the self-cleavage read?
A: 0.0339

Q: With U12C C26A as the variant, how does the self-cleavage read?
A: 0.831

Q: With U12C U37C as the variant, how does the self-cleavage read?
A: 0.35

Q: Which self-cleavage does the source give for G35U G76A here?
A: 0.404

Q: For C30G C41G, which self-cleavage is on record?
A: 0.0707

Q: For C7G A83C, which self-cleavage is on record?
A: 0.175

Q: With G34A A77C as the variant, how does the self-cleavage read?
A: 0.095

Q: Which self-cleavage does the source give for U46A C62A here?
A: 0.543

Q: With G39A C64U as the variant, how does the self-cleavage read?
A: 0.484

Q: For U20C A43C, which self-cleavage is on record?
A: 0.178

Q: For G38C A45U, which self-cleavage is on record?
A: 0.213

Q: For G1A A78U, which self-cleavage is on record?
A: 0.0449

Q: For U9G G82U, which self-cleavage is on record?
A: 0.767

Q: With A16G C36U as the variant, how does the self-cleavage read?
A: 0.655

Q: Which self-cleavage does the source give for C48U U60G here?
A: 0.776

Q: For C22A G80C, which self-cleavage is on record?
A: 0.229

Q: For C44U G81U, which self-cleavage is on record?
A: 0.212

Q: Which self-cleavage does the source give for C49U C61A here?
A: 0.76

Q: For A45G C61U, which self-cleavage is on record?
A: 0.888

Q: For C13U C26U, which self-cleavage is on record?
A: 1.07

Q: For C44A G50U, which self-cleavage is on record?
A: 0.594

Q: For G55A C63G, which self-cleavage is on record?
A: 0.632

Q: With U9A A77U as the variant, how does the self-cleavage read?
A: 0.506

Q: For C44U G52C, which self-cleavage is on record?
A: 0.806

Q: With G76U G80A as the variant, how does the self-cleavage read?
A: 0.595

Q: With G29U G59U as the variant, how does the self-cleavage read?
A: 0.147

Q: Which self-cleavage does the source give for C41G A78C here?
A: 0.0405

Q: For C4U G55C, which self-cleavage is on record?
A: 0.656

Q: Which self-cleavage does the source give for U12A G76A here?
A: 0.499
